Assay [1] has as its target T1, human CD19 exon1-3-His tag protein (human, UniProt P15391 20-186, limits assumed).
T1 construct: membrane-distal part of the extracellular region, made in HEK293E cells; not shown: His tag
T1 sequence (looked up): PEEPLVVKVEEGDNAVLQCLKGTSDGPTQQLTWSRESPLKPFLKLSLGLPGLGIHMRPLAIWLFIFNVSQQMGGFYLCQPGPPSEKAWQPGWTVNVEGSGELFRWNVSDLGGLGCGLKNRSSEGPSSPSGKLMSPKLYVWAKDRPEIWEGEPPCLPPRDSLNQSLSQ
The experiment in a line: ELISA on coated human CD19 exon 1-3-His. The protocol: Human CD19-his protein (purchased from ACROBiosystems, catalog number: CD9-H52H2) was diluted with PBS to a final concentration of 4 μg/mL, and then added to a 96-well ELISA plate at 100 μl/well. The plate was sealed with a plastic film and incubated overnight at 4° C., the plate was washed 2 times with PBS the next day, and then a blocking solution [PBS+2% (w/w) BSA] was added for blocking at room temperature for 2 h. The blocking solution was poured off, and 100 nM gradiently diluted CD19 chimeric antibody or control antibody was added at 50 μl/well. After incubation at 37° C. for 2 h, the plate was washed 3 times with PBS. […] TMB substrate was added at 50 μl/well, and incubated at room temperature for 10 min, and then a stop solution (1.0 N HCl) was added at 50 μl/well. The OD450 nm values were read by an ELISA microplate reader (Multimode Plate Reader, EnSight, purchased from Perkin Elmer).
CD19 protein contains 4 exons in the extracellular region, in which exons 1-3 are located at the membrane-distal end and exon 4 is located at the membrane-proximal end. […] To identify the distribution of antigen binding epitopes of the chimeric antibodies, human CD19 exon 1-3-His (membrane-distal end) was used to coat at 2 μg/mL according to the ELISA method in example 5.1.
For orientation: An ELISA detects its analyte on a solid surface through an enzyme-linked reagent.

The target of a further assay is T2, Human CD19-his protein (human, UniProt P15391 20-291).
T2 construct: bought protein; also called recombinant human CD19-His; CD19 full-length protein; not shown: His tag
T2 sequence (looked up): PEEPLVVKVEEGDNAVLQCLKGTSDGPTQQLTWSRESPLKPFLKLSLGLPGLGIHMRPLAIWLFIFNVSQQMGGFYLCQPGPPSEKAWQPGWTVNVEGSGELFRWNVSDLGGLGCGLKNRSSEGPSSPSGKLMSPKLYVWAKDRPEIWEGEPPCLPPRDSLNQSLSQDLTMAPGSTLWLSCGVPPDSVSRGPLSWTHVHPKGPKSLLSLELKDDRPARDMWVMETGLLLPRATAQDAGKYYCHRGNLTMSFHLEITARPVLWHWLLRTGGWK
The experiment in a line: SPR Biacore, Ab captured on Protein A, CD19-His analyte. In a few lines: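 Antibodies were captured on a Protein A chip at 25 °C in HBS-EP+. Human CD19-His was injected for 240 s at 30 μl/min at 5 concentrations from 200 nM (1:1 dilutions), with dissociation up to 600 s. Data were double-referenced and fitted to a Langmuir 1:1 model for apparent KD.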

B1: F4.107.12 (antibody, human IgG1, V domains shown)
VH: EVQLQQSGPELVKPGASVKMSCKASGYTFTSYVLHWVRQKPGQGLEWIGYFNPYNDGTEYNEKFKGKAILTSDKSSSTAYMELNSLTSEDSAVYYCVGGTYYYGSSYPFAYWGQGTLVTVST
VL: DVVMTQISLSLPVSLGDQASISCRSSQSLIHSNGNTYLQWYLQKPGQSPKLLIYKVSNRLSGVPDRFSGSGSGTDFTLKISRVEAEDLGVYFCSQSTHVPYTFGGGTKLEIK
notes: human-murine chimeric antibody, human IgG1 constant
With B1, in assay [1], the binding result is “no binding (tested: 100 nM)”. For the same molecule, in the assay with Human CD19-his protein, the Kd (as a rule, the free concentration of one partner at which half of the binding sites on the other are occupied at equilibrium, for simple one-to-one binding) was determined as 1.09 nM; the koff (in general, a measure of how fast the partners let go of each other) turned out to be 0.000217 s⁻¹; the kon – broadly, the second-order rate constant of association – was 200000 M⁻¹ s⁻¹.

B2: F4.152.7 (antibody, human IgG1, V domains shown)
VH: QVQLQQPGAELVKPGASVKLSCKASGYTFTSYWMHWVKQRPGQGLEWIGEIDPSDSYTNYNQKFKGKATLTADKSSSTAYMQLSGLTSEDSAVYHCARGGDYDGYYVMDYWGQGTSVTVSS
VL: EIVLTQSPTTMAASPGEKITITCSASSSISSNYLHWYQQKPGFSPKLLIYRTSNLASGVPARFSGSGSGTSYSLTIGTMEADDVATYYCQQGSYIPRIFTFGSGTKLEIK
notes: as for B1
In the case of B2, in assay [1], the binding result is on record as “no binding (tested: 100 nM)”. In the assay with Human CD19-his protein, this molecule showed a Kd of 0.337 nM, a koff of 8.9e-05 s⁻¹ and a kon of 264000 M⁻¹ s⁻¹.

B3: F4.145.9 (antibody, human IgG1, V domains shown)
VH: EVQLVESGGGLVKPGGSLKLSCAAAGFAFSSYDMSWVRQIPEKRLEWVAYISAGGGNTYFLDTVKGRFTISRDHAKNTLSLQMSSLKSEDTAMYFCVRHGDYYRYFYAMDYWGQGSSVTVSS
VL: DIVMTQSHKFMSTSVGDRVSITCKASQDVGTAVAWSQQKPGQSPKLLIYWASTRHTGVPDRFTGSGSGTDFTLTISNVQSEDLADYFCQQFVTYPYTFGGGTKLEIK
notes: as for B1
Turning to B3, the binding result in assay [1] is reported as “no binding (tested: 100 nM)”. Further, in the assay with Human CD19-his protein, the Kd stood at 3.68 nM, the koff was 0.000591 s⁻¹ and the kon came out at 161000 M⁻¹ s⁻¹.

B4: F3.126.15 (antibody, human IgG1, V domains shown)
VH: QVQLQQPGAELVMPGASVKLSCKASGYTFTSYWMHWVKQRPGQGLEWIGEIDPSDSYTTYNQNFKGKATLTVDISTSTAYIQLSNLTSEDSAVYYCARLTGNYIHYWGQGTTLTVSS
VL: DIVMTQSHKFMSTSVGDRVSITCKASQDVSPAVAWYQQRPGQCPKLLIFSSSYRSTGVPDRFTGSGSGTDFTFTISSVQAEDLAVYYCQQHYSLPLTFGAGTKLELK
notes: as for B1
On to B4, for which the binding result in assay [1] is on record as “no binding (tested: 100 nM)”. In the assay with Human CD19-his protein, this molecule returned a Kd of 13 nM, a koff of 0.000799 s⁻¹ and a kon of 61300 M⁻¹ s⁻¹.

B5: F4.180.1 (antibody, human IgG1, V domains shown)
VH: EVQLQQSAPELVKPGASVKMSCKTSGYTFTENIIHWVKQTHGKSLEWIGGINPDNGGTSYHQKFKGRTTLTIDKSSSTAYMELRSLTSDDSAVFFCARQAPLYWYFDIWGAGTTVTVSS
VL: DIVLTQSPASLAVSLGQRATISCRASESVDSYGNSLMHWFQQKPGQPPRLLIYRASNLESGIPARFSGSGSRTDFTLTITPVEADDVATYYCQQSNEDPWTFGGGTKLEIK
notes: as for B1
For the molecule B5, the binding result in assay [1] was “no binding (tested: 100 nM)”. In the assay with Human CD19-his protein, this molecule gave a Kd of 0.359 nM, a koff of 8.52e-05 s⁻¹ and a kon of 237000 M⁻¹ s⁻¹.

B6: F4.125.12 (antibody, human IgG1, V domains shown)
VH: EVKLVESGGGLVQPGGSLKLSCAASGFTFSTYTMSWVRQTPEKRLEWVAFISSGGGHINYPDTVKGRFTISRDNAKNTLYLQMSSLKSEDTAMYYCARHSYWFFDVWGAGTTVTVSS
VL: DVQITQSPSYLAASPGETITINCRASKNIDTYLAWYQEKPGKTNKLLIYSGSTLQSGIPSRFRGGGSGTDFTLTICSLEPEDFAMYYCQQHNEYPLTFGAGTKLELK
notes: as for B1
Consider B6, for which the binding result in assay [1] is listed as “no binding (tested: 100 nM)”. In the assay with Human CD19-his protein, this molecule had a Kd of 0.734 nM, a koff of 0.000204 s⁻¹ and a kon of 278000 M⁻¹ s⁻¹.

For the origin of these results see US20250042994A1 (HAINAN SIMCERE ZAIMING PHARMACEUTICAL, published 2025).
